The text below walks through data of the DeepSol protein solubility set.

A short description of the data set: soluble on expression in E. coli; label from the status in PepcDB or PDB records.
For the sequence “MNIISEHGFRIDGRRPAQIRNINTRLGLNRNAEGSCYLEHGNTKVLCAVYGPYEGKSSKRIEDKCAIVCQYSATKFSGLERKNRTRGDRKSTEISRLLEKAFESVILTEAFPRSQLDIFCEVIQGDGSNLAACVNATSLALADAGIPMKGIASAATCGVVDGKPIVDLTSREETDLLPRVTLATICGRDEVILVELQNRLHIDHLSTVMDAAKATCADVYECLAVVAQQHLKACAPILGN”, the “soluble on expression in E. coli” value is given as “not soluble”.
Then “MNILQEPIDFLKKEELKNIDLSQMSKKERYKIWKRIPKCELHCHLDLCFSADFFVSCIRKYNLQPNLSDEEVLDYYLFAKGGKSLGEFVEKAIKVADIFHDYEVIEDLAKHAVFNKYKEGVVLMEFRYSPTFVAFKYNLDIELIHQAIVKGIKEVVELLDHKIHVALMCIGDTGHEAANIKASADFCLKHKADFVGFDHGGHEVDLKEYKEIFDYVRESGVPLSVHAGEDVTLPNLNTLYSAIQVLKVERIGHGIRVAESQELIDMVKEKNILLEVCPISNVLLKNAKSMDTHPIRQLYDAGVKVSVNSDDPGMFLTNINDDYEELYTHLNFTLEDFMKMNEWALEKSFMDSNIKDKIKNLYFKGEFEAYV”, with “soluble”; and “MNINILLSTYNGERFLAEQIQSIQRQTVNDWTLLIRDDGSTDGTQDIIRTFVKEDKRIQWINEGQTENLGVIKNFYTLLKHQKADVYFFSDQDDIWLDNKLEVTLLEAQKHEMTAPLLVYTDLKVVTQHLAVCHDSMIKTQSGHANTSLLQELTENTVTGGTMMITHALAEEWTTCDGLLMHDWYLALLASAIGKLVYLDIPTELYRQHDANVLGARTWSKRMKNWLTPHHLVNKYWWLITSSQKQAQLLLDLPLKPNDHELVTAYVSLLDMPFTKRLATLKRYGFRKNRIFHTFIFRSLVVTLFGYRRK”, with “not soluble”; and “MNINLSVPYAAEGPGPTINTLGQVDGEDVVSISSADLDETEGNLNMTTVSVRSGMTLSQVISRWLFTDDTIVPIEQVFPPGQSTEEVEESNRTAFISSESSATIAAMNYLNIPVEVEVAEVLTDSAATGIFEPGDKLLSIDGTAISTPGDAQTIVRSKAPGDEITISYERNDAESQATITLREHPDDSSVALLGISMLSVPSSAIEVDYNLEDIGGPSAGMMFSLAVVDKLSPGALNGGKFVAGTGTIAEDGSVGPIGGIAHKVRAAEDAGAEVFLSPADNCAEAMSAKPQDMTILKVDSLSQAIDQMAAYNEGLEHHHHHH”, with “soluble”.
The entry for “MNKEEQYLLFALSAPMEILNQGCKPAHDSPKMYTGIKEFELSSSWGINNRDDLIQTIYQMTDDGHANDLAGLYLTWHRSSPEEWKALIAGGSERGLIYTQFVAQTAMCCGEGGIKAWDYVRMGFLSRVGVLNKWLTEEESLWLQSRVYVRAHHYYHSWMHYFSAYSLGRLYWQSSQCEDNTSLREALTLYKYDSAGSRMFEELAAGSDRFYATLPWQPLTVQSECPVTLKDVSDL” is “soluble”.
Then “MNKEQLQQMRQAPGFVGALDQSGGSTPKALKAYGIQPDAYQSEEEMFDLIHQMRTRMITSPAFATGKIIGVILFERTMRGKIEGMPTADFLWEKRHIVPFLKVDKGLQDEANGVQLMKPFPELGKLCEEAVGYHVFGTKMRSVIKQANEQGIRDIVEQQFQWGKEILSHGLVPILEPEVDIHCPEKAKAEEILKRELLAQLDKMTEPVMLKITIPTVDNFYKEIIEHPMMLRVVALSGGYSREQANELLSRNHGVIASFSRALVEGLSARQTDAEFNAMLEASIEDVYQASIK”, with “soluble”; and “MNKFLFAAALIVSGLLVGCNQLTQYTITEQEINQSLAKHNNFSKDIGLPGVADAHIVLTNLTSQIGREEPNKVTLTGDANLDMNSLFGSQKATMKLKLKALPVFDKEKGAIFLKEMEVVDATVQPEKMQTVMQTLLPYLNQALRNYFNQQPAYVLREDGSQGEAMAKKLAKGIEVKPGEIVIPFTD”, with “not soluble”; and “MNKIIKYIGASAVVCMMAGCTTNFEDFNTNPYQPSKVPASNLLSTMFNVYACPQQNACQEINCMWASFSGQVTATANWSFGKNIFAYYNASEGHNDSSWGRLYGYIYPSFFLVENSTEKKGVIYAMAQLTRVYGMQLLASLQGPIPYTQMKAGETEAPYDNEQTVWHAMFDDLDNAITILKSAATFGVNQDLAVVDQFYKGDCSKWLKFANTLKLRMAIRISGVEPEYAQTKAQEAVLGGVMESVGDSSYDTTNGGINENGYAIVSGWPEVRANACLVSYMNGYNDPRRPAYFTPQTQTAAGGYVGVRSGSAEIPEPTVYANYSKLFIATDKTLPQPVMYAAEAAFLRAEGALKGWNMGGDAKTFYEKGVRLSFEEFGVSGADDYLADATSIPGNYVDNLIAGHTGNNYTNQSSITIKWEDGADDAKKLERVLTQKWIACYPDPMNGWADFRRTGYPRIFPATESMNADCNTGRGQRRLRFTRSEYNNNKANVEAAVSMLSNGKDSNGTDLWWAMKENGTY”, with “not soluble”.
For “MNKNIDTVREIITVASILIKFSREDIVENRANFIAFLNEIGVTHEGRKLNQNSFRKIVSELTQEDKKTLIDEFNEGFEGVYRYLEMYTNK”, the “soluble on expression in E. coli” value is given as “soluble”.
The entry for “MNKPENFEEAIEIKRDPEDFSVEEIADIEPDPNGKYTIIKARVRDWDTNRIAAEIARRLHMSRKRVTFAGTKDKRAVKLQYFCINSADVDVASLSGIKDFEVIESFKSSHYLTLGDLIANHFKIRFYGIDPEMFRERYVHIISKGGFPNFFGDQRFGSRRRNTHEIGKLIIKGEYEEAVKKYIYDEKYDKESYRKHFIDTLDYKTALERFPHSLSFERSLIGYYARNGTFKGAFDSLPKNLTIMFVHAYQSYLFNRILDERLKIYGLNAVLPGDIAFPVDAYFNPDKSKPIEVNSYNREKISKLVSSDKIRISLPIFGYKTWIDNSDFGDVEYGILKEEGISQDDFKNKDFAYLSSSGDRRIISAKPINFSLENNVVEFTLGKGIYATVFLSSIGRLKENVYSDSEAELLEHHHHHH” is “soluble”; for “MNKTMAKSLSVIIPACNEVDTISDVIQSVRPLNPVEIIVVANGCNDGTEDVADRLGCKVIKHTELLGNDVGRAVGAKHAIGDVLLFIDGDFAIPTSKLKLFLNPILYDQADVVLNNLDALFLKRQKTTSITVWRQILNAMLEREELKMNSLLDVPHALTKEVVQSIGYECFVNPIVAHLRLVQSKWRISRHCAIDVITPNKFRPFQHAAYGTNLSQSEKRMIGDHIEAVAERILSSDERGGYYDGNRKRDSVYHTLSFEEFYQGWGVTSDFYKGKQLSVVIPVQDEEKTIGNVIEELRKIEPFEIIVVVNGSSDKTKKIAKDKGATTIVYKEALGNDVGRSLGTYFAKGEIVLFIDGDFVIPASELYPFAKAIADGTDVALNDLNHYLDLRVPLHLVTAFKYALNLACDRKDLGVGSLIAVPNAFSRKCLKEIGYRSLLAPCVAQVKAILSGFEVACVSRVEVDKMNRIRPSEHFAKIGHPPAVLRIIGDHIEGLDQIIALTDNRGGFYDGNRKRDVLLEHHHHHH” it is “not soluble”; for “MNKTSKAYQPLLSSKAKIAIIGGGVAGSTIALRFAELGLDTTLIEKGPSLVNGPPICHLHAGGNLYREICDEQCLTLLKQSIDTVKVYPQSVNIRPTVIALPKTDNGQPEDLLPRLEKLRAKYSELVAQDSRNKVLGEPENYFKFYSRTELDALLDLPLPKTAKNDSDWLVAFAQHVDLDSLKFPVLLVQEYGLSAFRFAAIASLAIEGLPSCHLQTNKQVIAIVQQKNSLGWQVSTQALPQHQQSPTIIHQHFDYVINACGFKSGEIDDMVSAKRKRMVEFKAAYVAHWPQCQGLWPEIVFYGERGTPQGMAQLTPYPDGYFQLHGMTQDITLFDQGLVASSLESAQPQLAKRFIEKIDKKWPEQLVHNRTLGSIEHIAQFISAFSSAEVAAKPLFGAQQIPGEDADLRAADVSFYGQHYARAEIVKASSALAAGDAILKNLVDCGLIAALELGRYLTEHYFPVSQQCSEIEVTERAIMLAKQREYPIALAKNLLEHHHHHH” it is “soluble”.
Then “MNKYFYDGTPEGLVSAIGAILESGDDPEQTVLSIRQDTLFEEGLFLRTDSAVAEALFQRLRERAPDAVQTLWYFTMTEVDGLATSLLRYIALAFEHGDQVNGYLTHPDVKAVVATARKVGRELHRMKGLLRFEQLRDGTWLARMEPDHNVIQPLARHFSRRLRTQEWFIYDARRHSAAHWDGHALSFGTLERFSRPELSPEERVMQQLWQTFFKTIAIPERKNPRLQQSNMPAKYWKYLTEKQGE”, with “not soluble”; and “MNLKDLLAHRENLMDSAKRARSAITDDMDPADAAQAVENVKSIISEIESTDEAIAARRGVSDVTQKLKGLTITERGTENDSAASRSLGEHFVKAAGDRLKNQAAGAHIEYSVPEYQVKEDAHSSPKDLVEGWGTFYQR”, with “soluble”.
Then “MNLKPHCLALALACAGLAGPLPALAATPAAAQSAPVTVLASLPVTHALAERLLRDTEVKLQRVAPANLPASRQASFFAGRGAGGLAKAAGQADAVIDLRSIWSDDPLYPLARRSNIRIVEIDAARPVDGALPGIALRPGSDLHAYPWLNPTNLGRMADVLASDLERLAPGAAATIQANLATLKKQLLEATASNETRLAKADNLSVISLSERLGYLLAGLNLDPLDVEIQADDGWTETNIQAFAEELKSEDIALVLHHRQPPKPLADAIAASGARLIVVDTEAADPVAGLESDMKAIVEGLLAGKG”, with “not soluble”; and “MNLLQRALVFTGGHISRYQAVIAVNSVGKNARFYSTTDDNMAAPEESVVAKDEMKRFMVECMTKVGATESHATQLALVLLEGDIRGHYSHGLNRLDMYVRDIEQNVCKGDGEPIILKEKAGTAWVDGNNLLGPVVGNFCMDLAIEKAKNAGIGWVVAKGSNHYGIAGWYALRAMKKGMLGMSMTNTSPISFPTRSAVPALGTNPISLAAPGTGDDSFVLDMASTTVAIGKVELAARKENPVPLSWGVGEGGKETTDPTKVLYGGGLLPLGGVEVSGGYKGYGLSSMIEIFCGILAGAHWGPHVRKWMSTKSEADLGQCFVAIDPEAFAPGFADRLQDFMQTMRALPTSSPSFKVEVAGDMERRHEALVEQLGGIPYHKNQITFVNDLAAKLGVKTVDLVQ”, with “not soluble”; and “MNLNPAHINEPVQKEFLSVIKEYERVIYKVCYLYTTRNATLGDLYQEVILNLWKAYPKFRKECKISTWIYRIALNTCISFIRKEKNVPEIVALTREADWMTEEKDELTEMLRQLYRMINQLGQLDKSIVLLYLEEKSYEEIAEITGLTVTNVATKLSRIKDKLKKMKKEE”, with “not soluble”.
As to “MNLTDYVKEVSRQDFGIEFQHTASWNSRLQTTGGRFFPEDGHLDFNPKFCKKGDAGTFRKIVRHELCHYHLYYAGKGYRHGDKDFKDLLLQVNGVRYAPSIQSNTFYHYYQCESCGQVYQRKRRMNTKKYACGNCHGKLRHQNQSLEHHHHHH”, the “soluble on expression in E. coli” value is “not soluble”.
With “MNLVTDQDLLDVVNFFNRPLHALIAEVSKTTSDLELVRSTTQGIENICLLLDLVGTECIKDASAAKTSVLEHHHHHH”, the “soluble on expression in E. coli” value is on record as “not soluble”.
In the case of “MNMYRVIEMYGDFEPWWFLEGWEEDIVASRKFDQYYDALKYYKTCWFRLEQESPLYKSRSDLMTIFWDPEDQRWCDECDEYLQQYHSLALLQDEQVIPDEKLRSGYEKQTSQERNRSCRMKLKLEHHHHHH”, the “soluble on expression in E. coli” value is “soluble”.
Then “MNNAKTAVTSRSVISLNSPIFLRQFYFEILNRLQVSSIIPKSKSEYVDAHMIRVSIEPQPTAFAYVFEYSTISTEPDNWNFAGASSKPEATFSILDPCRDYQFRVIIVIRSSNPAAVFDIIRPRPIPVQLPPFILTQPQISIEMPRVNNFNASGDLKLYVKWSLPYGYIDGDIYSYESPALYPIQCSTPEGEIPTPRIEIVKGGGRLAVWLPPSVLEARCRMWVEVRMLPRCVRLEPFNIQKNIEIDCSKNPSLDVCSKGR”, with “not soluble”.
